This note sets out measurements from PMC3061058 (Nucleic Acids Research, 2010).

Data set [1] has as its target T1, rgyr (reverse gyrase, full-length wild type) (Thermotoga maritima, UniProt O51934).
T1 sequence (O51934 1-1104): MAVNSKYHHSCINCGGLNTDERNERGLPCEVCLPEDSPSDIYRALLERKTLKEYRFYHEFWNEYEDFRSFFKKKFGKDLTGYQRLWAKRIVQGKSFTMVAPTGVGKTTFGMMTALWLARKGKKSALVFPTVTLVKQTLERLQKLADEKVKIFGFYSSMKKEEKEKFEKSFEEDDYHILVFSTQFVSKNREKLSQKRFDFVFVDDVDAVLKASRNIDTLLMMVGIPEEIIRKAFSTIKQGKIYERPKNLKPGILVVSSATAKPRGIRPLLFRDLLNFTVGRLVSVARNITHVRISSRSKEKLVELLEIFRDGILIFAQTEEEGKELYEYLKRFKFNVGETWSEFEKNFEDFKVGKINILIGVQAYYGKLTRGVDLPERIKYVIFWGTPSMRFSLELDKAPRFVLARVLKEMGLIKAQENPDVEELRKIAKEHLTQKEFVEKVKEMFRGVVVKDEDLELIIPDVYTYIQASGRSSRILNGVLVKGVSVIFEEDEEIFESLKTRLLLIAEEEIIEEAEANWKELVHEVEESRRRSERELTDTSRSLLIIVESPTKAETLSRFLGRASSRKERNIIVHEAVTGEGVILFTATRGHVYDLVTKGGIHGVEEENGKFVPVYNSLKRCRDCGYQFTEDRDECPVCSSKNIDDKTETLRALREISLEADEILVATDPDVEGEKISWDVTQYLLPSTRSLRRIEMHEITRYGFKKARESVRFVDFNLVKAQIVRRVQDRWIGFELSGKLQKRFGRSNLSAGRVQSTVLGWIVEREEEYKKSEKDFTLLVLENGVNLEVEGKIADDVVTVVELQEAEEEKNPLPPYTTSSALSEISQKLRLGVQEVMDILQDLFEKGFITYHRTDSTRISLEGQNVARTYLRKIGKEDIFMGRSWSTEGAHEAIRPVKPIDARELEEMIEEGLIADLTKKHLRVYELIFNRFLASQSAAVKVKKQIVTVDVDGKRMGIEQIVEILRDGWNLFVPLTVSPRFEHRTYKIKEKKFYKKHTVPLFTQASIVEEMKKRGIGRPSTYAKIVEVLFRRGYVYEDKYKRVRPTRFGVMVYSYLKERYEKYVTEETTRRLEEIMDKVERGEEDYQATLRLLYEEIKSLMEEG
Briefly: fluorescence equilibrium titration. The class given is binding.

For data set [2], the target named is rgyr_Δlatch (reverse gyrase lacking the latch region) (Thermotoga maritima, UniProt O51934, DEL389-459/INS388G). Briefly: biochemical.
Substrate in data set [3]: Nc1ncnc2c1ncn2[C@@H]1O[C@H](COP(=O)(O)OP(=O)(O)OP(=O)(O)O)[C@@H](O)[C@H]1O
Briefly: purified protein. Conditions: no DNA, pH 7.5, 10 mM MgCl2, 0.15 M NaCl.

Data set [4] has as its target T2, isolated latch (H3) (Thermotoga maritima, UniProt O51934 388-459).
T2 sequence: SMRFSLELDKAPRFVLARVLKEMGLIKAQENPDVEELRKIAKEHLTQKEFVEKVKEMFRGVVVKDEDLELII
Briefly: fluorescence anisotropy. In general terms: Fluorescence polarisation rises when a labelled molecule tumbles more slowly, as on binding a larger partner.

The target of data set [5] is T3, rgyr_hel_Δlatch (Thermotoga maritima, UniProt O51934 59-388+=G+460-541, internal_change).
T3 sequence: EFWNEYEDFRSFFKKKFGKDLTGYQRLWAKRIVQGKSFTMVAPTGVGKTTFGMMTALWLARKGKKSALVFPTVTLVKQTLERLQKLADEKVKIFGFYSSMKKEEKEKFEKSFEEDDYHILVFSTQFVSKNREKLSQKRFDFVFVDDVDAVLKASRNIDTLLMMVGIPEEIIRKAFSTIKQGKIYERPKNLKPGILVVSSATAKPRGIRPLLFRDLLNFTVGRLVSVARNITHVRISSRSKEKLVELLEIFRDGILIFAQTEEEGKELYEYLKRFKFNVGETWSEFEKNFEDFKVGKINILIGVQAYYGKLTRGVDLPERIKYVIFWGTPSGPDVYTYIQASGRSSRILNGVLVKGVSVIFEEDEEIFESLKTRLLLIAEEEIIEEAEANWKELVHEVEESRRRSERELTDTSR
Briefly: fluorescence anisotropy.

For data set [6], the target named is T4, rgyr_Δlatch (Thermotoga maritima, UniProt O51934 1-1104, del389-459).
T4 sequence: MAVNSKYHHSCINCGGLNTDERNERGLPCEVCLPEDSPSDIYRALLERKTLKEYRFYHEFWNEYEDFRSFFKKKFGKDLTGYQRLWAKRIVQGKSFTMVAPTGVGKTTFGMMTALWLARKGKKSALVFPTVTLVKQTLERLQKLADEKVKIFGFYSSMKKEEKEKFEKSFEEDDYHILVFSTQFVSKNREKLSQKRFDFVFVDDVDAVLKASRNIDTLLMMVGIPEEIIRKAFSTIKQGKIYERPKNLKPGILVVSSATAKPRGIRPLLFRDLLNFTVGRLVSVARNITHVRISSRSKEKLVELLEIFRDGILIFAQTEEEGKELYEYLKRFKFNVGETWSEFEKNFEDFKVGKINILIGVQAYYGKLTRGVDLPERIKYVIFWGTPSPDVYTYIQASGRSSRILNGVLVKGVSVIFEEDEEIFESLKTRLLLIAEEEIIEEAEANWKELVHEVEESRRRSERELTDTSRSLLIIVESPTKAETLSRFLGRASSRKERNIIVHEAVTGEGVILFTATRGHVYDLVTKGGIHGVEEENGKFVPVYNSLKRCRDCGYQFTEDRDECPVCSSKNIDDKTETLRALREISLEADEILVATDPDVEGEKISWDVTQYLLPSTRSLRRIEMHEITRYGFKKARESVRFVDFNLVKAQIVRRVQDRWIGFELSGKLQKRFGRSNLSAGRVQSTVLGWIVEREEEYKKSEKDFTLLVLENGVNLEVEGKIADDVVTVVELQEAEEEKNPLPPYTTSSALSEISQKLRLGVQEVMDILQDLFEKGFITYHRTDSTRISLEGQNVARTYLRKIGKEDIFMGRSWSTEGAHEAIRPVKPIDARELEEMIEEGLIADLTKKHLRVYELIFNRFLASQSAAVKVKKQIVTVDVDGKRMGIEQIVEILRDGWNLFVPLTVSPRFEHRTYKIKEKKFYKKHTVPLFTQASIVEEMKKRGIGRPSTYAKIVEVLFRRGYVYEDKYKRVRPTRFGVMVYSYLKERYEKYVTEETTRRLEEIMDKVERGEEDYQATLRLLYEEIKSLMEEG
Briefly: fluorescence anisotropy.

The target of data set [7] is T4, rgyr_Δlatch. Briefly: fluorescence anisotropy. This is another data set of the same source.

The Kd is a measure of binding affinity in units of concentration. Low values mean higher affinity, high ones lower affinity. Broadly, the Km is the substrate concentration at which the rate is half of its maximum. By kcat is commonly meant the number of substrate molecules converted per active site and unit of time at saturation.

Where two headings read alike, the source gives them in different places.

Consider `Nc1ncnc2c1ncn2[C@@H]1O[C@H](COP(=O)(O)OP(=O)(O)NP(=O)(O)O)[C@@H](O)[C@H]1O` [ADPNP], for which the Kd in data set [1] came to 10 ± 0.8 µM; in data set [2] it was 4.7 ± 0.8 µM.

B1: rgyr_hel_Δlatch (helicase-like domain lacking the latch) (Thermotoga maritima MSB8; DEL389-459/INS388G) (protein)
chain: EFWNEYEDFRSFFKKKFGKDLTGYQRLWAKRIVQGKSFTMVAPTGVGKTTFGMMTALWLARKGKKSALVFPTVTLVKQTLERLQKLADEKVKIFGFYSSMKKEEKEKFEKSFEEDDYHILVFSTQFVSKNREKLSQKRFDFVFVDDVDAVLKASRNIDTLLMMVGIPEEIIRKAFSTIKQGKIYERPKNLKPGILVVSSATAKPRGIRPLLFRDLLNFTVGRLVSVARNITHVRISSRSKEKLVELLEIFRDGILIFAQTEEEGKELYEYLKRFKFNVGETWSEFEKNFEDFKVGKINILIGVQAYYGKLTRGVDLPERIKYVIFWGTPSGPDVYTYIQASGRSSRILNGVLVKGVSVIFEEDEEIFESLKTRLLLIAEEEIIEEAEANWKELVHEVEESRRRSERELTDTSR
Take B1: in data set [3], the Km came to 67 ± 18 µM and the kcat turned out to be 0.02 s⁻¹.

B2: rgyr_Δlatch (reverse gyrase lacking the latch region) (Thermotoga maritima MSB8; DEL389-459/INS388G) (protein)
chain: MAVNSKYHHSCINCGGLNTDERNERGLPCEVCLPEDSPSDIYRALLERKTLKEYRFYHEFWNEYEDFRSFFKKKFGKDLTGYQRLWAKRIVQGKSFTMVAPTGVGKTTFGMMTALWLARKGKKSALVFPTVTLVKQTLERLQKLADEKVKIFGFYSSMKKEEKEKFEKSFEEDDYHILVFSTQFVSKNREKLSQKRFDFVFVDDVDAVLKASRNIDTLLMMVGIPEEIIRKAFSTIKQGKIYERPKNLKPGILVVSSATAKPRGIRPLLFRDLLNFTVGRLVSVARNITHVRISSRSKEKLVELLEIFRDGILIFAQTEEEGKELYEYLKRFKFNVGETWSEFEKNFEDFKVGKINILIGVQAYYGKLTRGVDLPERIKYVIFWGTPSGPDVYTYIQASGRSSRILNGVLVKGVSVIFEEDEEIFESLKTRLLLIAEEEIIEEAEANWKELVHEVEESRRRSERELTDTSRSLLIIVESPTKAETLSRFLGRASSRKERNIIVHEAVTGEGVILFTATRGHVYDLVTKGGIHGVEEENGKFVPVYNSLKRCRDCGYQFTEDRDECPVCSSKNIDDKTETLRALREISLEADEILVATDPDVEGEKISWDVTQYLLPSTRSLRRIEMHEITRYGFKKARESVRFVDFNLVKAQIVRRVQDRWIGFELSGKLQKRFGRSNLSAGRVQSTVLGWIVEREEEYKKSEKDFTLLVLENGVNLEVEGKIADDVVTVVELQEAEEEKNPLPPYTTSSALSEISQKLRLGVQEVMDILQDLFEKGFITYHRTDSTRISLEGQNVARTYLRKIGKEDIFMGRSWSTEGAHEAIRPVKPIDARELEEMIEEGLIADLTKKHLRVYELIFNRFLASQSAAVKVKKQIVTVDVDGKRMGIEQIVEILRDGWNLFVPLTVSPRFEHRTYKIKEKKFYKKHTVPLFTQASIVEEMKKRGIGRPSTYAKIVEVLFRRGYVYEDKYKRVRPTRFGVMVYSYLKERYEKYVTEETTRRLEEIMDKVERGEEDYQATLRLLYEEIKSLMEEG
With B2, in data set [3], the Km was 26.5 ± 3.5 µM and the kcat is 0.018 s⁻¹.

B3: 60 b ssDNA (ssDNA)
DNA: AAGCCAAGCTTCTAGAGTCAGCCCGTGATATTCATTACTTCTTATCCTAGGATCCCCGTT
Consider B3, for which the Kd in data set [4] was 64 ± 29 µM; in data set [5], 0.42 ± 0.07 µM; in data set [6] it was 0.033 ± 0.077 µM.

B4: 60 bp dsDNA (dsDNA)
DNA 1: AAGCCAAGCTTCTAGAGTCAGCCCGTGATATTCATTACTTCTTATCCTAGGATCCCCGTT
DNA 2: AACGGGGATCCTAGGATAAGAAGTAATGAATATCACGGGCTGACTCTAGAAGCTTGGCTT
B4: the Kd in data set [7] turned out to be 0.096 ± 0.019 µM; in data set [4], 78 ± 39 µM; in data set [5] it was 21 ± 5 µM.
